Four molecules from patent US20230158180A1 (SLOAN KETTERING INSTITUTE FOR CANCER RESEARCH, published 2023) can be followed below.

Experiment [1] addresses melanocortin-1 receptor (MC1R) on murine B16/F1 and B16F10 melanoma cells (mouse) (UniProt Q01727). Put plainly: same type of competitive binding assay (given for reference).
The target in experiment [2] is melanocortin-1 receptor (MC1R) on human M21 melanoma cells (human) (UniProt Q01726). Put plainly: flow cytometry dose response, M21 melanoma cells. Background: In flow cytometry, cells or beads pass a laser one at a time.
Chain of melanocortin-1 receptor (MC1R) on human M21 melanoma cells (human) (Q01726 whole entry): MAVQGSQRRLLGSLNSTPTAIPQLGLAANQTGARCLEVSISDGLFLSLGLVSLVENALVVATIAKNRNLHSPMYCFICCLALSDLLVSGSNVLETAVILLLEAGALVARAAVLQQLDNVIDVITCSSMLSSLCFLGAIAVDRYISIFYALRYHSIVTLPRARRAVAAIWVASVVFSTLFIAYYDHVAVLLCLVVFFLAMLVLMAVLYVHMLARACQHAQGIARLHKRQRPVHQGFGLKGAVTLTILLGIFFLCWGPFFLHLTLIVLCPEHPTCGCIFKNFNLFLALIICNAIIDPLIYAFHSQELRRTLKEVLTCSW
The target in experiment [3] is melanocortin-1 receptor (MC1R) on murine B16/F1 and B16F10 melanoma cells (mouse) (UniProt Q01727). Put plainly: flow cytometry dose response, B16F10 melanoma cells.
Chain of melanocortin-1 receptor (MC1R) on murine B16/F1 and B16F10 melanoma cells (mouse) (Q01727 whole entry, one chain of several): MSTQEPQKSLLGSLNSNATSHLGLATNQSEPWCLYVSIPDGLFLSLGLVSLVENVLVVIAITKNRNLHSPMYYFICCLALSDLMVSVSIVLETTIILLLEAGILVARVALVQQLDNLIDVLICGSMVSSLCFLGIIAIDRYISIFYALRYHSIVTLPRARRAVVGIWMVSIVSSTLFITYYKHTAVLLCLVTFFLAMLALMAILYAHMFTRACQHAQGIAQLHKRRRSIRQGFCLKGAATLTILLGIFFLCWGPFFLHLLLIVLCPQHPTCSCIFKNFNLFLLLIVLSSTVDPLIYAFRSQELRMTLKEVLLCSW
The target is the same in experiment [4]. Put plainly: competitive binding against ^125I-NDP, cultured B16/F1 melanoma cells.
For experiment [5], the target named is T1, αvβ3 integrin receptor (human, on M21 melanoma cells and HUVEC cells) (human, UniProt P06756 31-1048; P05106 27-788). Put plainly: cell-based or functional assay.
T1 sequence (P06756 31-1048, chain 1 of 2): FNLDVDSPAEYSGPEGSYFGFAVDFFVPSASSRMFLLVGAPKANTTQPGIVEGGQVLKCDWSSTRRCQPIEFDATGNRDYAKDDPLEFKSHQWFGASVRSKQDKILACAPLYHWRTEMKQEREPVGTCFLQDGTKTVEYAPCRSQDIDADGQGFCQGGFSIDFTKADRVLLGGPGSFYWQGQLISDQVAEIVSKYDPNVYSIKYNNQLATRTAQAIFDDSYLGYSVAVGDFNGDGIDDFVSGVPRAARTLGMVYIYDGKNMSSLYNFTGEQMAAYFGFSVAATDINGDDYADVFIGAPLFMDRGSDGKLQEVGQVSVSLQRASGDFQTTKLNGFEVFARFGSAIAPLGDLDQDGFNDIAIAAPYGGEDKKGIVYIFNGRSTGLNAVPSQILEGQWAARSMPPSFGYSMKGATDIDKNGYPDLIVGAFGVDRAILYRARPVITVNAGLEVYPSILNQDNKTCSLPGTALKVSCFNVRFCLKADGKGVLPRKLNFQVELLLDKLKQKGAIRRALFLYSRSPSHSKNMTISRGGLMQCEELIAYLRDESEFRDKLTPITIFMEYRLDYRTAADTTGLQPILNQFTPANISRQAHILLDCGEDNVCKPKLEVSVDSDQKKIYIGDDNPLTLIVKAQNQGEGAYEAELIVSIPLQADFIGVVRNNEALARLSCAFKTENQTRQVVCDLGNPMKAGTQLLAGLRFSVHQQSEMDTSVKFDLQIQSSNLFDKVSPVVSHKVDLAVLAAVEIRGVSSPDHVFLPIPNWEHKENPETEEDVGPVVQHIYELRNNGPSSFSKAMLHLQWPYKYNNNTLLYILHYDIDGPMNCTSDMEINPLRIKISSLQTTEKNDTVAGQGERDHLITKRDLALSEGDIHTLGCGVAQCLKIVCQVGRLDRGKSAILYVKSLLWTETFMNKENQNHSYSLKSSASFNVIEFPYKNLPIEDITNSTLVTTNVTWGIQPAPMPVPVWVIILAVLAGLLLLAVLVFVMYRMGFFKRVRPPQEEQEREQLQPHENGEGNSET
T1 sequence (P05106 27-788, chain 2 of 2): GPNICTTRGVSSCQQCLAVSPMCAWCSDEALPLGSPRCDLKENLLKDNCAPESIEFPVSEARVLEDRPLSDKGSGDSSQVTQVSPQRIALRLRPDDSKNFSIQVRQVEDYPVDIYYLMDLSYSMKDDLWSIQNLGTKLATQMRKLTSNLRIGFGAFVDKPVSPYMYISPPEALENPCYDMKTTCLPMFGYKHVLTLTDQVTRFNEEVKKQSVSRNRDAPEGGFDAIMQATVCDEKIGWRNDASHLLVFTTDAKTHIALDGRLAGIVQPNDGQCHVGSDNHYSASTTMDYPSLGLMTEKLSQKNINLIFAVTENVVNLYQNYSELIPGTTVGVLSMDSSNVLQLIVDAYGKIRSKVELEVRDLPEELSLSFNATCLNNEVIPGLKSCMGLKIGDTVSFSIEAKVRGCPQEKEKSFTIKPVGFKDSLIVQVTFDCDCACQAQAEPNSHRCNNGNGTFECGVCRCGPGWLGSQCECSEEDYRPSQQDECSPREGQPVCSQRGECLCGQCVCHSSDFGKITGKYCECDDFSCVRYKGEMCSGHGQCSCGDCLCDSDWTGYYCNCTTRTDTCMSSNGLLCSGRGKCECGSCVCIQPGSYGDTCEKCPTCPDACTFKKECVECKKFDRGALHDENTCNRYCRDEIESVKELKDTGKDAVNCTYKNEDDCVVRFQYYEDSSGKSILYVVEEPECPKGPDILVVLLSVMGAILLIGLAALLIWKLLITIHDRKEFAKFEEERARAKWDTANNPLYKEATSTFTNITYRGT
The target of experiment [6] is T1, αvβ3 integrin receptor (human, on M21 …). Put plainly: Scatchard analysis, gamma counting, M21 cells. As to the method:
To assay particle binding and specificity for M21 cells, 24-well plates were coated with 10 μg/ml collagen type I (BD Biosciences, Bedford, Mass.) in phosphate buffered saline (PBS) and incubated (37° C., 30 min). M21 cells (3.0-4.0×10^5 cells/well) were grown to confluency and washed with RPMI 1640 media/0.5% bovine serum albumin (BSA). ¹²⁴I-cRGD-PEG-nanoparticles (0-4.0 ng/ml) were added to wells and cells incubated (25° C., 4 hours), washed with RPMI 1640 media/0.5% BSA, and dissolved in 0.2 M NaOH. […] Nonspecific binding was determined in the presence of a 1000-fold excess of cRGD (Peptides International, Louisville, Ky.). Scatchard plots of the binding data were generated and analyzed using linear regression analyses (Microsoft Excel 2007) to derive receptor-binding parameters (Kd, Bmax, IC50).
To examine in vitro binding affinity and specificity of ¹²⁴I-cRGDY-PEG-dots and ¹²⁴I-PEGdots to tumor and vascular endothelial surfaces, αᵥβ₃ integrin-overexpressing (M21) and nonexpressing (M21L) melanoma and human umbilical vein endothelial (HUVECs) cell lines were used. Highly specific linear and saturable binding of the cRGDY-PEG-dots was observed over a range of particle concentrations (0 to 8 ng/ml) and incubation times (up to 5-hrs), with maximum differential binding at 4-hr and ˜2.0 ng/ml particle concentration (data not shown) using flow cytometry. […]

Experiment [7] shares this target. Put plainly: competitive binding, gamma counting, M21 cells. Here is the method: Nonspecific binding was determined in the presence of a 1000-fold excess of cRGD (Peptides International, Louisville, Ky.). Scatchard plots of the binding data were generated and analyzed using linear regression analyses (Microsoft Excel 2007) to derive receptor-binding parameters (Kd, Bmax, IC50).
To examine in vitro binding affinity and specificity of ¹²⁴I-cRGDY-PEG-dots and ¹²⁴I-PEGdots to tumor and vascular endothelial surfaces, αᵥβ₃ integrin-overexpressing (M21) and nonexpressing (M21L) melanoma and human umbilical vein endothelial (HUVECs) cell lines were used. Highly specific linear and saturable binding of the cRGDY-PEG-dots was observed over a range of particle concentrations (0 to 8 ng/ml) and incubation times (up to 5-hrs), with maximum differential binding at 4-hr and ˜2.0 ng/ml particle concentration (data not shown) using flow cytometry. Receptor-binding specificity of ¹²⁴I-cRGDY-PEG dots was tested using γ-counting methods after initially incubating M21 cells with excess non-radiolabeled cRGD and then adding various concentrations of the radiolabeled targeted probe (FIG. 8A). […] Based on the Bmax value, the αᵥβ₃ integrin receptor density was estimated to be […] per M21 cell, in reasonable agreement with the previously published estimate of 5.6×10⁴ for this cell line. Cressman, et al., Binding and uptake of RGD-containing ligands to cellular αᵥβ₃ integrins. […]

What is called IC50 is the point on the concentration scale where inhibition reaches its midpoint. Lower therefore signals greater potency in that assay. In general, Kd refers to a measure of binding affinity in units of concentration. High values mean weaker binding, low ones tighter binding.

Non-standard residues stand in square brackets, D forms with d. Groups on a side chain read outwards from the residue. *: point of attachment. Cy5 silica nanoparticle = Cy5 dye-containing core-shell silica nanoparticle (~7 nm); PEG = not defined here; 124I = [124I]* A value given as a limit tells only on which side of the number the result lay.

For “DOTA-ReCCMSH (original ReCCMSH targeting molecule) (peptide)”, the IC50 in experiment [1] was found to be 2.1 nM.

Consider “alpha-MSH-PEG-Cy5-C dots (N-Ac-Cys-(Ahx)2-D-Lys-ReCCMSH peptide-bound nanoparticles)”, for which the saturation concentration in experiment [2] and in experiment [3] was 100 nM each time. This molecule came in with a half-maximal inhibitory concentration (IC50) in experiment [4] of 0.66 nM.

B1: cRGDY-PEG-dots (non-radiolabeled, cRGDY peptide-bearing, PEG-coated Cy5 core-shell silica nanoparticles) (other)
peptide: cyclo(RGD[dY]C([maleimide-PEG-Cy5 silica nanoparticle]))
modifications: not fully specified; reading uncertain; also: Cys linked via maleimide to PEG on Cy5 silica nanoparticle
On to B1, for which, in experiment [5], the “methylene blue uptake (absorbance) of attached M21 cells without particle pre-incubation relative to particle-exposed cells” value came out at 2 fold and the “multivalent enhancement factor (ratio of the cRGD peptide to cRGDY-PEG-dot IC50 values), anti-adhesion assay, M21 cells on vitronectin-coated plates” value was more than 2 fold.

B2: ^124I-cRGDY-PEG-dots (radioiodinated, cRGDY peptide-bearing, PEG-coated Cy5 core-shell silica nanoparticles) (other)
peptide: cyclo(RGD[dY](124I)C([maleimide-PEG-Cy5 silica nanoparticle]))
modifications: not fully specified; reading uncertain; also: Cys linked via maleimide to PEG on Cy5 silica nanoparticle
B2 had a dissociation constant (Kd) in experiment [6] of 0.51 nM. This molecule also came in with an IC50 in experiment [7] of 1.2 nM.
